“Also recorded” adds a separate entry of the source. Where two headings read alike, the source gives them in different places. Where no end group is shown, it is not given here.
B1: BP: Porcine myelin basic protein (Lilly) (protein, UniProt P81558 1-171, looked up)
Myelin basic protein: ASQKRPSQRHGSKYLASASTMDHARHGFLPRHRDTGIDSLGRFFGADRGAPKRGSGKDGHHAARTTHYGSLPQKAQHGRPQDENPVVHFFKNIVTPRTPPPSQGKGRGLSLSRFSWGAEGQKPGFGYGGRAPDYKPAHKGLKGAQDAQGTLSKIFKLGGRDSRSGSPMARR
B2: OA: chicken ovalbumin (Sigma) (protein, UniProt P01012 2-386, looked up)
Ovalbumin: GSIGAASMEFCFDVFKELKVHHANENIFYCPIAIMSALAMVYLGAKDSTRTQINKVVRFDKLPGFGDSIEAQCGTSVNVHSSLRDILNQITKPNDVYSFSLASRLYAEERYPILPEYLQCVKELYRGGLEPINFQTAADQARELINSWVESQTNGIIRNVLQPSSVDSQTAMVLVNAIVFKGLWEKAFKDEDTQAMPFRVTEQESKPVQMMYQIGLFRVASMASEKMKILELPFASGTMSMLVLLPDEVSGLEQLESIINFEKLTEWTSSNVMEERKIKVYLPRMKMEEKYNLTSVLMAMGITDVFSSSANLSGISSAESLKISQAVHAAHAEINEAGREVVGSAEAGVDAASVSEEFRADHPFLFCIKHIATNAVLFFGRCVSP

Experiments:
adjuvant arthritis [1] = type: in vivo, Lewis rats
adjuvant arthritis [2] = test: Adjuvant-induced model of arthritis, summary statements on prevention and treatment; type: in vivo, Lewis rats; details: summary statement
adjuvant arthritis [3] = tested on: adjuvant arthritis; set-up: species or system Lewis rats; details: rat, in vivo
adjuvant arthritis [4] = details: for Development of experimental allergic encephalomyelitis (EAE): arthritogenic doses of CFA (Mb) combined with MBP

Row | Molecule | Effect on the course of pre-existing arthritis (adjuvant arthritis [1]; rat, in vivo) | Remission of arthritis (adjuvant arthritis [1]; rat, in vivo) | Anti-arthritic activity after storage (adjuvant arthritis [1]; solvated and kept in refrigerator at 4 degrees centigrade for three months) | Prevention and suppression/treatment of arthritis (summary in words) (adjuvant arthritis [2]; listed as MBP) | Prevention and suppression/treatment of arthritis (summary in words) (adjuvant arthritis [2]; listed as pMBP) | Protective effect against induction of adjuvant arthritis (adjuvant arthritis [3]) | Development of experimental allergic encephalomyelitis (EAE) (adjuvant arthritis [4]) | Development of experimental allergic encephalomyelitis (EAE) (adjuvant arthritis [4]; listed as MBP) | A. Number of animals inoculated/number of animals with arthritis (adjuvant arthritis [4]; rat, in vivo) | C. Average day of onset of arthritis (adjuvant arthritis [4]; rat, in vivo) [days] | D. Average duration of symptoms (adjuvant arthritis [4]; rat, in vivo) [days] | Effect of co-inoculation with FCA on arthritis (in words) (adjuvant arthritis [4]; rat, in vivo) | Effect of co-inoculation with FCA on arthritis (in words) (adjuvant arthritis [4]; rat, in vivo, listed as MBP)
1 | FSWGAEGQR [EAE peptide, EAE peptide derived from MBP, reference compound] | somewhat effective |  |  |  |  |  |  |  |  |  |  |  | 
2 | B1 | marked effect on the course of the arthritis, reducing the clinical severity of the disease | complete remission in all three animals tested | no activity | prevent and suppress arthritis | appear to protect against and to effectively treat pre-existing arthritis clinical symptoms | minimal protective effects that were of limited clinical value | developed experimental allergic encephalomyelitis (EAE) | All six animals developed EAE | 0/6 | 0 | 0 | did not develop any symptoms of arthritis over a period of 2 months | none had any clinical signs or arthritis
3 | B2 |  |  |  |  |  | very significant protective effects against induction of adjuvant arthritis; also recorded: protective |  |  |  |  |  |  | 

From patent US5942491A (priority 1996, dated 1999)
